# Molecular target: Taxol-stabilized microtubules (bovine brain tubulin) (bovine) (UniProt Q6B856)
# Assay: TIRF microscopy of purified proteins on surface-bound microtubules (in vitro reconstitution); Taxol-stabilised biotinylated microtubules bound to NeutrAvidin coverslips; 100 nM CLASP2α-GFP or 100 nM GFP-L-TOG2-S with […] TRITC-phalloidin F-actin flowed in; imaging buffer with MRB80, Taxol, 0.2 mM ATP; 35°C; PCC after 10 min, time-lapse up to 40 min
substance,measurement,value
His-CLASP2α-EGFP-Strep (natural protein),Pearson correlation coefficient (PCC) of the CLASP2α-GFP and microtubule signals,0.88

# From publication PMC10011731
